Assay results taken from publication PMC6080931 (The Journal of Cell Biology, 2018).

B1: Atg18-TAP (overproduced, of the purified Atg2–Atg18 complexes) (natural protein, S. cerevisiae, UniProt P43601 1-500, looked up)
chain: MSDSSPTINFINFNQTGTCISLGTSKGFKIFNCEPFGKFYSEDSGGYAIVEMLFSTSLLALVGIGDQPALSPRRLRIINTKKHSIICEVTFPTSILSVKMNKSRLVVLLQEQIYIYDINTMRLLHTIETNPNPRGLMAMSPSVANSYLVYPSPPKVINSEIKAHATTNNITLSVGGNTETSFKRDQQDAGHSDISDLDQYSSFTKRDDADPTSSNGGNSSIIKNGDVIVFNLETLQPTMVIEAHKGEIAAMAISFDGTLMATASDKGTIIRVFDIETGDKIYQFRRGTYATRIYSISFSEDSQYLAVTGSSKTVHIFKLGHSMSNNKLDSDDSNMEEAAADDSSLDTTSIDALSDEENPTRLAREPYVDASRKTMGRMIRYSSQKLSRRAARTLGQIFPIKVTSLLESSRHFASLKLPVETNSHVMTISSIGSPIDIDTSEYPELFETGNSASTESYHEPVMKMVPIRVVSSDGYLYNFVMDPERGGDCLILSQYSILMD

How the values were obtained:
[1] = target: Atg2 (untagged, overproduced, of the purified Atg2–Atg18 complexes) (S. cerevisiae) (UniProt P53855); assay: liposome flotation assay
Sequence of Atg2 (untagged, overproduced, of the purified Atg2–Atg18 complexes) (S. cerevisiae) (P53855 whole entry, one chain of several): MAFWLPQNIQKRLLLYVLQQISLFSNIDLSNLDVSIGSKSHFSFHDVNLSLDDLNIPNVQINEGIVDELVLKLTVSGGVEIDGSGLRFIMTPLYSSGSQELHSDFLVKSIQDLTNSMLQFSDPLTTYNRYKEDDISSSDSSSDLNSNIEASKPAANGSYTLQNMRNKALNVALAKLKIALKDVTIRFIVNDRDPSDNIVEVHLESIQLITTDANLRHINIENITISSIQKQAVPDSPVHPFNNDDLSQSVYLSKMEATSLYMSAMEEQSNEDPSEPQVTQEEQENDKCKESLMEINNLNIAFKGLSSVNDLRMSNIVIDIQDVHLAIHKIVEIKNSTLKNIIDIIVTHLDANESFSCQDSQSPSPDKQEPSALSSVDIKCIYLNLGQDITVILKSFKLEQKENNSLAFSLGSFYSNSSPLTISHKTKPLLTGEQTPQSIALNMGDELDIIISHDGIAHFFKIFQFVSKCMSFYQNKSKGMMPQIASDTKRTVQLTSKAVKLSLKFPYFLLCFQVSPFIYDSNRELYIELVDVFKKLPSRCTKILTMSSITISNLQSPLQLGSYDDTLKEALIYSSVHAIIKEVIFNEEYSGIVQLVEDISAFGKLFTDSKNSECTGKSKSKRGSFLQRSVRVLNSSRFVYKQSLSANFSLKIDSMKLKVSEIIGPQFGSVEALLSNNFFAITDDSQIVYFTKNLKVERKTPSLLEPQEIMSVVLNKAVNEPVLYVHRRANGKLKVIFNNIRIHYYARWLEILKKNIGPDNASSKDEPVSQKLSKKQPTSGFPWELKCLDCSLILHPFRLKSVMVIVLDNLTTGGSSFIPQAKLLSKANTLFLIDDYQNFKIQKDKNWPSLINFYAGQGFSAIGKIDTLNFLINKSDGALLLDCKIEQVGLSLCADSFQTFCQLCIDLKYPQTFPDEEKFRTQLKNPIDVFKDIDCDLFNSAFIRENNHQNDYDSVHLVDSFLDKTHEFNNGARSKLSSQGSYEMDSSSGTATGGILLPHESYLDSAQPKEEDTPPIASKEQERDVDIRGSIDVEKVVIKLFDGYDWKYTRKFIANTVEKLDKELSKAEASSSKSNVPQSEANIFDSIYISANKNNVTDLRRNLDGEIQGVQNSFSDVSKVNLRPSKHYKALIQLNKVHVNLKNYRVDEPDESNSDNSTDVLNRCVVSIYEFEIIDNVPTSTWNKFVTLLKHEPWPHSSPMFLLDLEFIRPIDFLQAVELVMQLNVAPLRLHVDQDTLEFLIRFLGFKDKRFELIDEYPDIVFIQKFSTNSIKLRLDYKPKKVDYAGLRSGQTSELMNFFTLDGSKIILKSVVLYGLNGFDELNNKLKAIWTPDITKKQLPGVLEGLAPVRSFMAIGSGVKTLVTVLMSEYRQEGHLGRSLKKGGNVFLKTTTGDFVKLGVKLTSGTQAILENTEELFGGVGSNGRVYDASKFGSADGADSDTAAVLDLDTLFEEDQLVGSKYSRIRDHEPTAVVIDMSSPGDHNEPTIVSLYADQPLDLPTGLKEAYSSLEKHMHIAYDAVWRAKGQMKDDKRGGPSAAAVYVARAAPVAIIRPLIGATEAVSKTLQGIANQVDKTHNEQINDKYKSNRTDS

[2] = target: Atg2 (untagged, overproduced, of the purified Atg2–Atg18 complexes) (S. cerevisiae, UniProt P53855 1-1592); assay: liposome flotation assay
Sequence of Atg2 (untagged, overproduced, of the purified Atg2–Atg18 complexes) (P53855 whole entry, one chain of several): as above

| Molecule | percent of Atg18^FAAG on liposomes with Atg9 [1] | stoichiometry N [2] |
| --- | --- | --- |
| Atg18^FAAG-TAP (overproduced, mutant unable to bind PtdIns3P) (from UniProt P43601 1-500) (natural protein) | < 58% |  |
| B1 |  | ~1 ratio |
